Sequences and labels used below:
B1: E3 ubiquitin-protein ligase NEDD4 (Homo sapiens), P46934-3 (parent)
chain: MAQSLRLHFAARRSNTYPLSETSGDDLDSHVHMCFKRPTRISTSNVVQMKLTPRQTALAPLIKENVQSQERSSVPSSENVNKKSSCLQISLQPTRYSGYLQSSNVLADSDDASFTCILKDGIYSSAVVDNELNAVNDGHLVSSPAICSGSLSNFSTSDNGSYSSNGSDFGSCASITSGGSYTNSVISDSSSYTFPPSDDTFLGGNLPSDSTSNRSVPNRNTTPCEIFSRSTSTDPFVQDDLEHGLEIMKLPVSRNTKIPLKRYSSLVIFPRSPSTTRPTSPTSLCTLLSKGSYQTSHQFIISPSEIAHNEDGTSAKGFLSTAVNGLRLSKTICTPGEVRDIRPLHRKGSLQKKIVLSNNTPRQTVCEKSSEGYSCVSVHFTQRKAATLDCETTNGDCKPEMSEIKLNSDSEYIKLMHRTSACLPSSQNVDCQININGELERPHSQMNKNHGILRRSISLGGAYPNISCLSSLKHNCSKGGPSQLLIKFASGNEGKVDNLSRDSNRDCTNELSNSCKPGWVVLDQPDAACHLQQQQEPSPLPPGWEERQDILGRTYYVNHESRRTQWKRPTPQDNLTDAENGNIQLQAQRAFTTRRQISEETESVDNRESSENWEIIREDEATMYSNQAFPSPPPSSNLDVPTHLAEELNARLTIFGNSAVSQPASSSNHSSRRGSLQAYTFEEQPTLPVLLPTSSGLPPGWEEKQDERGRSYYVDHNSRTTTWTKPTVQATVETSQLTSSQSSAGPQSQASTSDSGQQVTQPSEIEQGFLPKGWEVRHAPNGRPFFIDHNTKTTTWEDPRLKIPAHLRGKTSLDTSNDLGPLPPGWEERTHTDGRIFYINHNIKRTQWEDPRLENVAITGPAVPYSRDYKRKYEFFRRKLKKQNDIPNKFEMKLRRATVLEDSYRRIMGVKRADFLKARLWIEFDGEKGLDYGGVAREWFFLISKEMFNPYYGLFEYSATDNYTLQINPNSGLCNEDHLSYFKFIGRVAGMAVYHGKLLDGFFIRPFYKMMLHKPITLHDMESVDSEYYNSLRWILENDPTELDLRFIIDEELFGQTHQHELKNGGSEIVVTNKNKKEYIYLVIQWRFVNRIQKQMAAFKEGFFELIPQDLIKIFDENELELLMCGLGDVDVNDWREHTKYKNGYSANHQVIQWFWKAVLMMDSEKRIRLLQFVTGTSRVPMNGFAELYGSNGPQSFTVEQWGTPEKLPRAHTCFNRLDLPPYESFEELWDKLQMAIENTQGFDGVD

This experiment covers variants of B1. As to conditions: with spike_sars2 S.
Turning to I843R, the “effect of a mutation on the interaction” value is listed as “increasing interaction strength”.

As for R877Q, the “effect of a mutation on the interaction” value is “increasing interaction strength”.

The record behind these values is IntAct's records for PubMed 33762578.
